Results taken from patent publication US20100204100A1, “BIOLOGICAL AGENTS ACTIVE IN CENTRAL NERVOUS SYSTEM” (THE JOHNS HOPKINS UNIVERISTY, priority 2007, published 2010).
“Also recorded” adds a separate entry of the source.

Columns and labels:
[1] = test system: threshold for halothane anesthesia; test: Measurement of halothane MAC (tail clamp); format: in vivo, mouse; conditions: mice; for effect on halothane MAC: intraperitoneal injection, dose series; for halothane MAC: mean±S.E.M., vehicle 1.12±0.05
Method: The purified fusion peptides at the indicated amounts were injected intraperitoneally into mice in 300 μl of phosphate-buffered saline and 10% glycerol. The mice were given Tat-PSD-95 PDZ2 or control peptide (mutated Tat-PSD-95 PDZ2 or PSD-95 PDZ2 without Tat) 4 h before MAC measurement and righting reflex testing. All the animals were assigned randomly to experimental groups consisting of 6-8 animals each. Western blot analysis was then used to verify the CNS delivery of these fusion peptides after intraperitoneal injection. Measurement of halothane MAC value was carried out as previously described with minor modification^20-22. Mice were placed in individual Plexiglas chambers 3 h after the injection of the fusion peptides. Each chamber was fitted with a rubber stopper at one end through which the mouse's tail and a rectal temperature probe protruded. Groups of four mice were given halothane in oxygen (4 l/min total gas flow). A gas sample was continuously drawn, and the anesthetic concentration was measured with an agent analyzer (Ohmeda 5250 RGM, Louisville, Colo.). A rectal temperature probe was inserted under light general anesthesia, and temperature was kept at 36˜38° C. with heat lamps throughout the experiment. Mice initially breathed approximately 1.5% halothane for 60 min. […] In each case, the tail was stimulated proximal to the previous test site. Only the middle third of the tail was used for tail-clamping. […] The anesthetic concentration was increased (or decreased) in steps of 0.1% until the positive response disappeared (or vice versa), with 10 min for equilibration allowed after each change of anesthetic concentration. MAC is defined as the concentration midway between the highest concentration that permitted movement in response to the stimulus and the lowest concentration that prevented movement.

[2] = In vivo CNS / spinal cord distribution of Tat fusion peptides after intraperitoneal injection (Western blot, immunohistochemistry); design: species or system mouse; conditions: mice; for delivery into lumbar spinal cord, Western blot: 4 h after intraperitoneal injection; for distribution in the spinal cord, immunohistochemical staining: after intraperitoneal injection; for delivery into cerebral cortex, hippocampus and lumbar spinal cord, Western blotting: 4 h after intraperitoneal injection (data not shown); for dose dependence of delivery into the spinal cord, Western blot: intraperitoneal 2, 4, 8 mg/kg
Method: In Vivo Systemic Administration and Spinal Cord Distribution of Tat Fusion Peptides. Western blot analysis and immunohistochemistry were used to detect the spinal cord distribution of Tat fusion peptides after systemic administration. The purified fusion peptides at the indicated amounts were injected into mice intraperitoneally in 300 μl of PBS and 10% glycerol, as previously described (Cao, et al., 2002). The mice, assigned randomly to the experimental groups of 6-8, were given Tat-PSD-95 PDZ2 or control peptide (mutated Tat-PSD-95 PDZ2 or PSD-95 PDZ2 without Tat PTD) 4 h before sample collection. For Western blotting, lumbar spinal cord tissues were harvested, homogenized according to standard procedures, and centrifuged at 700×g for 15 min at 4° C. The extracted proteins were resolved by SDS-PAGE, electro-transferred to nitrocellulose membranes, and then immunoblotted with above-mentioned monoclonal anti-His antibody. For immunohistochemistry, sections from the spinal lumbar enlargement segments were fixed in 4% paraformaldehyde (in 0.1 M phosphate buffer, pH 7.4) for 10 min, and then incubated with the monoclonal anti-His antibody. Thereafter, the sections were rinsed with 0.01 M PBS, incubated with fluorescein isothiocyanate-conjugated anti-mouse IgG (1:80; Jackson ImmunoResearch Laboratories) for 1 h at 37° C., and rinsed again with PBS. The sections were imaged with confocal laser scanning microscopy at an excitation wavelength of 488 nm for fluorescein isothiocyanate.
The purified fusion peptides at the indicated amounts were injected intraperitoneally into mice in 300 μl of phosphate-buffered saline and 10% glycerol. The mice were given Tat-PSD-95 PDZ2 or control peptide (mutated Tat-PSD-95 PDZ2 or PSD-95 PDZ2 without Tat) 4 h before MAC measurement and righting reflex testing. All the animals were assigned randomly to experimental groups consisting of 6-8 animals each. Western blot analysis was then used to verify the CNS delivery of these fusion peptides after intraperitoneal injection.
Cerebral cortex, hippocampus, and lumbar spinal cord were harvested 4 h after intraperitoneal injection of the fusion peptides. Total proteins from these tissues were extracted. In brief, the tissues were removed and homogenized in homogenization buffer^18 (10 mM Tris-HCl, 5 mM MgCl2, 2 mM EGTA, 1 mM phenylmethylsulfonyl fluoride, […] leupeptin, 2 μM pepstatin A, and 320 mM sucrose, pH 7.4). The crude homogenates were centrifuged at 700×g for […] at 4° C. The pellets were rehomogenized and spun again at 700×g, and the supernatants were combined and diluted in resuspension buffer^18 (10 mM Tris-HCl, 5 mM MgCl2, 2 mM EGTA, 1 mM phenylmethylsulfonyl fluoride, 1 μM leupeptin, 2 μM pepstatin A, and 250 mM sucrose, pH 7.4). Next, the protein extracts were resolved by sodium dodecyl sulfate-polyacrylamide gel electrophoresis, electrotransferred to nitrocellulose membranes, and then immunoblotted with monoclonal anti-His antibody (Sigma, St. Louis, Mo.) diluted (1:1,000) in blocking solution containing 3% nonfat dry milk and 0.1% Tween-20 in Tris-HCl-buffered saline for 1 h at room temperature. After extensive washing, the membranes were incubated with horseradish peroxidase-conjugated anti-mouse immunoglobulin (Bio-Rad Laboratories, Hercules, Calif.) at a dilution of 1:3,000 for another 1 h. Specific proteins were detected by enhanced chemiluminescence (Amersham, Piscataway, N.J.). Tubulin served as a loading control and cerebral cortex was used for its detection.

Molecule | effect on halothane MAC compared to the vehicle-treated group ([1]; 8 mg/kg intraperitoneal) | effect on halothane MAC [1] | delivery into lumbar spinal cord, Western blot ([2]; listed as PSD-95 PDZ2 without Tat) | distribution in the spinal cord, immunohistochemical staining [2] | halothane MAC ([1]; 2 mg/kg intraperitoneal) | halothane MAC ([1]; 4 mg/kg intraperitoneal) | halothane MAC ([1]; 8 mg/kg intraperitoneal) | delivery into lumbar spinal cord, Western blot [2] | delivery into cerebral cortex, hippocampus and lumbar spinal cord, Western blotting [2] | dose dependence of delivery into the spinal cord, Western blot [2] | dose dependence of delivery into the spinal cord, Western blot ([2]; listed as Tat-P SD-95 PDZ2) | difference in PTD-mediated spinal delivery versus Tat-PSD-95 PDZ2 ([2]; intraperitoneal injection, Western blot)
PSD-95 PDZ2: Control peptide containing the same sequences as Tat-PSD-95 PDZ2 but without Tat PTD (protein) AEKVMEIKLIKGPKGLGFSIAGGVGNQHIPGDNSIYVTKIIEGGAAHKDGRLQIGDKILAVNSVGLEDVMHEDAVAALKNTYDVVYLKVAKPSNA | no effect | no effect | not detected | not detected |  |  |  |  |  |  |  | 
Tat-PSD-95 PDZ2: His-tagged fusion peptide: HIV Tat minimal transduction domain (residues 47-57) fused to the second PDZ domain of PSD-95 (protein) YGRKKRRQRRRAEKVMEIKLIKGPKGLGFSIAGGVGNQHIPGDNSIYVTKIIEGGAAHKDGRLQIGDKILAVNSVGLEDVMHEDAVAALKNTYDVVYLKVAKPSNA | significantly reduced | dose-dependently reduced |  | distributed in the spinal cord | 1.11±0.05 | 0.99±0.05 | 0.77±0.05 | delivered into lumbar spinal cord | delivered into cerebral cortex, hippocampus and lumbar spinal cord | dose-dependently delivered; also recorded: dose-dependent | dose-dependent | 
mutated Tat-PSD-95 PDZ2: Control fusion peptide: Tat-PSD-95 PDZ2 with three sites critical for NMDAR/PSD-95 interaction mutated (K165T, L170R and H182L) (protein) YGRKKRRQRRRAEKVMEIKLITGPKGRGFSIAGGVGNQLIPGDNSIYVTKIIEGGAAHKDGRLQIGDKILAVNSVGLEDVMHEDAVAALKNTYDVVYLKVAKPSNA | no effect | no effect |  |  |  |  |  | delivered into lumbar spinal cord | delivered into cerebral cortex, hippocampus and lumbar spinal cord |  |  | No significant difference
